Four substances from publication PMC3636998 can be followed below.

The target in assay [1] is GST fusion protein containing the C-terminal domain (CTD; residues 761-1042) of DGLα (UniProt Q9Y4D2). Kind of assay: pull-down.
The target in assay [2] is DGLα C-terminal domain, 761-1042 (UniProt Q9Y4D2). Briefly: GST cosedimentation, CaMKII blot. The following applies: reference: non-phosphorylated CaMKIIα; sites T286.
The target in assay [3] is DGLα-V5 (full-length diacylglycerol lipase-α with a C-terminal V5-epitope tag) (UniProt Q9Y4D2). Kind of assay: co-IP.
For assay [4], the target named is DGLα (UniProt Q9Y4D2). Kind of assay: anti-V5 co-immunoprecipitation, CaMKIIα blot. The following applies: reference: wild type CaMKIIα; sites T286.

For “purified Thr286-autophosphorylated CaMKIIα (from UniProt P11798 1-478) (enzyme)”, in assay [1], the CaMKII detected, normalized to the input was 0.37.

Regarding “CaMKIIα (from UniProt P11798) Thr286-autophosphorylated CaMKIIα”, in assay [2], the “other: bound CaMKII normalised to input aliquot” value is listed as “gained; reference 0.11±0.03”.

Take “WT CaMKIIα expressed in HEK293T cells (from UniProt P11798 1-478) (enzyme)”: the interaction with DGLα-V5, percent of WT in assay [3] was found to be 100%.

Regarding CaMKIIα (from UniProt P11798) T286A, the percent of reference entry in assay [4] is given as “weaker; reference 100±5%”.
